We go through 24 sequences from the DeepSol protein solubility set.

The series is described as follows: soluble on expression in E. coli; label from the status in PepcDB or PDB records.
On to “MGHHHHHHGGHMSLPKFSPCLWFNTQAEEAANFYTTIFEKGAILSKTNYVNEEHQPQGTSLMTIEFTLANQTIIGLNGGPEFSFTPASSFFVECTTLPQTETLWKNLTADGQILMPFGEYPFSPLYGWVVDKFGVSWQVSFSGKEQTIVPTFMFANEKYGEAAKALSEWLAIFGPGEIIEKVEYEDGNIAQALFTLQEQPFRVMDARDKHDFDFTMAFSIYIDCENQEEIDRLWQQVTAKGKEWPCGWMEDQFGVSWQTGNPELKRYLSDSNPARANEVTKKLYQMKKIDLNQLKEVYDKYNHEGGS”, for which the “soluble on expression in E. coli” value is listed as “soluble”. In the case of “MGHHHHHHGGHMSLQRGCDGCKQNQSREPATIDGFMPKAQESIMGQQKQRNRRWVLASRPHGAPVPENFRLEEDDVATPGEGQVLLRTVYLSLDPYMRGRMSDEPSYSPPVDIGGVMVGGTVSRVVESNHPDYQSGDWVLGYSGWQDYDISSGDDLVKLGDHPQNPSWSLGVLGMPGFTAYMGLLDIGQPKEGETLVVAAATGPVGATVGQIGKLKGCRVVGVAGGAEKCRHATEVLGFDVCLDHHADDFAEQLAKACPKGIDIYYENVGGKVFDAVLPLLNTSARIPVCGLVSSYNATELPPGPDRLPLLMATVLKKRIRLQGFIIAQDYGHRIHEFQREMGQWVKEDKIHYREEITDGLENAPQTFIGLLKGKNFGKVVIRVAGDDEGGS”, the “soluble on expression in E. coli” value was “soluble”.

On to “MGHHHHHHGGHMSLSNEVERVYPRLLDFVRKKYVSKNLLRVTLTGEDLIGFPEDQNGSHIKVFFPNQASGILQLPIREGDKVIWPEHKPVPRAYTVRQYRAQSNELDIDFVVHGEGTPGGGWALKAQTGSQLGLIGPGGPDPLIEPADWHIMAGDLSAVPAISAILEKMPSQAKGYVFLEVDDIEDKHDISHPEQMVIKWLVRDPNQAQPVLAMAIEQLPVPQGAESLSAFVAGENESVIACRKILRNEYRIARDKIYAIPYWKRGKNEEAYHEERHVVMDEEFEGGS”, for which the “soluble on expression in E. coli” value is “soluble”. In the case of “MGHHHHHHHHHHSSGHIDDDDKHMLEDPMATGDERFYAEHLMPTLQGLLDPESAHRLAVRFTSLGLLPRARFQDSDMLEVRVLGHKFRNPVGIAAGFDKHGEAVDGLYKMGFGFVEIGSVTPKPQEGNPRPRVFRLPEDQAVINRYGFNSHGLSVVEHRLRARQQKQAKLTEDGLPLGVNLGKNKTSVDAAEDYAEGVRVLGPLADYLVVNVSSPNTAGLRSLQGKAELRRLLTKVLQERDGLRRVHRPAVLVKIAPDLTSQDKEDIASVVKELGIDGLIVTNTTVSRPAGLQGALRSETGGLSGKPLRDLSTQTIREMYALTQGRVPIIGVGGVSSGQDALEKIRAGASLVQLYTALTFWGPPVVGKVKRELEALLKEQGFGGVTDAIGADHRR”, the “soluble on expression in E. coli” value is “soluble”. On to “MGHHHHHHHHHHSSGHIEGRHMILLEKTQEKKINDKEELIVKEEVETNWDYGCNPYERKIEDLIKYGVVVVDKPRGPTSHEVSTWVKKILNLDKAGHGGTLDPKVTGVLPVALERATKTIPMWHIPPKEYVCLMHLHRDASEEDILRVFKEFTGRIYQRPPLKAAVKRRLRIRKIHELELLDKDGKDVLFRVKCQSGTYIRKLCEDIGEALGTSAHMQELRRTKSGCFEEKDAVYLQDLLDAYVFWKEDGDEEELRRVIKPMEYGLRHLKKVVVKDSAVDAICHGADVYVRGIAKLSKGIGKGETVLVETLKGEAVAVGKALMNTKEILNADKGVAVDVERVYMDRGTYPRMWKRKK”, for which the “soluble on expression in E. coli” value is on record as “soluble”. Consider “MGHHHHHHHSSENLYFQGHMRKIRVGLIFGGKSAEHEVSLQSARNILDALDPQRFEPVLIGIDKQGQWHVNDPDSFLLHADDPARIALHRSGRGVALLPGAQQQQLRPIQPEQALAQIDVVFPIVHGTLGEDGSLQGLLRMANLPFVGSGVLGSAVAMDKDMAKRVLRDARLAVAPFVCFDRHTAAHADVDTLIAQLGLPLFVKPANQGSSVGVSQVRTADAFAAALALALAYDHKVLVEAAVAGREIECAVLGNAVPHASVCGEVVVHDAFYSYATKYISEHGAEIVIPADIDAQTQQRIQQIAVQAYQALGCAGMARVDVFLCADGRIVINEVNTLPGFTRISVYPKLWQASGLDYRGLITRLIELALERHTDDQLLRSAVELH”, for which the “soluble on expression in E. coli” value is recorded as “soluble”.

As for “MGHHHHHHMPEINTNHLDKQQVQLLAEMCILIDENDNKIGAETKKNCHLNENIEKGLLHRAFSVFLFNTENKLLLQQRSDAKITFPGCFTNTCCSHPLSNPAELEESDALGVRRAAQRRLKAELGIPLEEVPPEEINYLTRIHYKAQSDGIWGEHEIDYILLVRMNVTLNPDPNEIKSYCYVSKEELKELLKKAASGEIKITPWFKIIAATFLFKWWDNLNHLNQFVDHEKIYRM”, the “soluble on expression in E. coli” value is listed as “soluble”.

For “MGHHHHHHQQIMKGNFSSFMQKEIFEQPESVVNTMRGRVNFDDYTVNLGGLKDHIKEIQRCRRLILIACGTSYHAGVATRQVLEELTELPVMVELASDFLDRNTPVFRDDVCFFLSQSGETADTLMGLRYCKERGALTVGITNTVGSSISRETDCGVHINAGPEIGVASTKAYTSQFVSLVMFALMMCDDRISMQERRKEIMLGLKRLPDLIKEVLSMDDEIQKLATELYHQKSVLIMGRGYHYATCLEGALKIKEITYMHSEGILAGELKHGPLALVDKLMPVIMIIMRDHTYAKCQNALQQVVARQGRPVVICDKEDTETIKNTKRTIKVPHSVDCLQGILSVIPLQLLAFHLAVLRGYDVDFPRNLAKSVTVE”, the “soluble on expression in E. coli” value is on record as “soluble”. With “MGHHHHHHSHANSIDLIGYVHQPVQFDSTLDGKFWAGTVISHEPSSDSKSESDSSSNFWIPVLFEGDLAHTANSYLKKNDRVHITGQILGDVIQSGANSDQAHVQLFKSFHGSFSHQVMVRD”, the “soluble on expression in E. coli” value is reported as “not soluble”.

“MGHHHHHHSHGTRQELSGNTKSRESIQEPRSDYYNHEVPDIDLSDCEFPHVIEIYDFPQEFRTEDLLRVFCSYQKKGFDIKWVDDTHALGVFSSPITARDALGIKHTMVKIRPLSQATRAAKAKARAYAEFLQPAKERPETSAALARRLVISALGVRSKQSKTEREAELKKLQEARERKRLEAKQREDIWEGRDQSTV”: the “soluble on expression in E. coli” value was “soluble”. Then “MGHHHHHHSHIAFLGPKGSYSHLAARQYAARHFEQFIESGCAKFADIFNQVETGQADYAVVPIENTSSGAINDVYDLLQHTSLSIVGEMTLTIDHCLLVSGTTDLSTINTVYSHPQPFQQCSKFLNRYPHWKIEYTESTSAAMEKVAQAKSPHVAALGSEAGGTLYGLQVLERIEANQRQNFTRFVVLARKAI”, with “soluble”; and “MGHHHHHHSHKHPFIVELAYAFQTGGKLYLILECLSGGELFTHLEREGIFLEDTACFYLAEITLALGHLHSQGIIYRDLKPENIMLSSQGHIKLTDFGLCKESIHEGAVTHTFCGTIEYMAPEILVRSGHNRAVDWWSLGALMYDMLTGSPPFTAENRKKTMDKIIRGKLALPPYLTPDARDLVKKFLKRNP”, with “not soluble”. Regarding “MGHHHHHHSHMAAGTLYTYPENWRAFKALIAAQYSGAQVRVLSAPPHFHFGQTNRTPEFLRKFPAGKVPAFEGDDGFCVFESNAIAYYVSNEELRGSTPEAAAQVVQWVSFADSDIVPPASTWVFPTLGIMHHNKQATENAKEEVRRILGLLDAYLKTRTFLVGERVTLADITVVCTLLWLYKQVLEPSFRQAFPNTNRWFLTCINQPQFRAVLGEVKLCEKMAQFDAKKFA”, the “soluble on expression in E. coli” value is “not soluble”. “MGHHHHHHSHMAATKRKRRGGFAVQAKKPKRNEIDAEPPAKRHATAEEVEEEERDRIPGPVCKGKWKNKERILIFSSRGINFRTRHLMQDLRMLMPHSKADTKMDRKDKLFVINEVCEMKNCNKCIYFEAKKKQDLYMW”: the “soluble on expression in E. coli” value is recorded as “not soluble”. For the sequence “MGHHHHHHSHMANSAGSMANSAGSMKEGKHFVLVHGACHGGWSWYKLKPLLEAAGHKVTALDLAASGTDLRKIEELRTLYDYTLPLMELMESLSADEKVILVGHSLGGMNLGLAMEKYPQKIYAAVFLAAFMPDSVHNSSFVLEQYNERTPAENWLDTQFLPYGSPEEPLTSMFFGPKFLAHKLYQLCSPEDLALASSLVRPSSLFMEDLSKAKYFTDERFGSVKRVYIVCTEDKGIPEEFQRWQIDNIGVTEAIEIKGADHMAMLCEPQKLCASLLEIAHKYN”, the “soluble on expression in E. coli” value is listed as “soluble”. As to “MGHHHHHHSHMAVRRPGCFLCREEAADLSSLKSMLDQLGVPLYAVVKEHIRTEVKDFQPYFKGEIFLDEKKKFYGPQRRKMMFMGFIRLGVWYNFFRAWNGGFSGNLEGEGFILGGVFVVGSGKQGILLEHREKEFGDKVNLLSVLEAAKMIKPQTLASEKK”, the “soluble on expression in E. coli” value is on record as “not soluble”. For “MGHHHHHHSHMCSWASYMTNSPTLIVMIGLPARGKTYVSKKLTRYLNWIGVPTKVFNLGVYRREAVKSYKSYDFFRHDNEEAMKIRKQCALVALEDVKAYLTEENGQIAVFDATNTTRERRDMILNFAEQNSFKVFFVESVCDDPDVIAANILEVKVSSPDYPERNRENVMEDFLKRIECYKVTYRPLDPDNYDKDLSFIKVINVGQRFLVNRVQDYIQSKIVYYLMNIHVQPRTIYLCRHGESEFN”, the “soluble on expression in E. coli” value was “soluble”. With “MGHHHHHHSHMDCCASRGCSVPTGPATTICSSDKSCRCGVCLPSTCPHTVWLLEPTCCDNCPPPCHIPQPCVPTCFLLNSCQPTPGLETLNLTTFTQPCCEPCLPRGC”, the “soluble on expression in E. coli” value was “not soluble”. With “MGHHHHHHSHMDDPLLVELQAEDYWYEAYNMRTGARGVFPAYYAIEVTKEPEHMAALAKNSDWVDQFRVKFLGSVQVPYHKGNDVLCAAMQKIATTRRLTVHFNPPSSCVLEISVRGVKIGVKADDSQEAKGNKCSHFFQLKNISFCGYHPKNNKYFGFITKHPADHRFACHVFVSEDSTKALAESVGRAFQQFYKQFVEYTCPT”, the “soluble on expression in E. coli” value is “soluble”. As for “MGHHHHHHSHMDFSHWPHVLPLEPGGCIDFQTENSSRHCLVTYRPDKNHTTIRSVLMEMSYRLDDTGNPICSCQPVHTFFGGPTCKLLTKNAIFQSPENDGNILVCTGDEAANSALLWDAASGSLLQDLRTDQPVLDICPFEVNRNSYLATLTEKMVHIYKWE”, the “soluble on expression in E. coli” value is listed as “not soluble”. Then “MGHHHHHHSHMDQRQRRILGQPLSIPTSQPKQKRTSMISFFSKVSWKLRFQKREPLKNVFFILAERARDPSAKKRHMAMRNLGTMAYEAPDKVRKYKKIVLDLLVYGLYDPVNLEVIHESMKTLTVVLGKIQGKGLGSFFIDIALQTRTLLDDENDSLRYSAFVLFGQLAAFAGRKWKKFFTSQVKQTRDSLLIHLQDRNPQVAKACKTTFQACSPYLKLKEEYSFQSEEDQRNTKLYQQLSHYHPEILQFFYANKIL”, with “not soluble”; and “MGHHHHHHSHMEKCSVGGLELTEQTPALLGNMAMATSLMDIGDSFGHPACPLVSRSRNSPVEDDDDDDDVVFIESIQPPSISAPAIADQRNFIFASSKNEKPQGNYSVIPPSSRDLASQKGNISETIVIDDEEDVETNGGAEKKSSFFIEWGLPGTKNKTNDLDFSTSSLSRSKTKTGVRPFNPGRMNVAGDLFQNGEFATHHSPEMHLQRRLMSFFQ”, with “not soluble”; and “MGHHHHHHSHMEVVLPLDPAVPAPLCPHGPTLLFVKVTQGKEETRRFYACSACRDRKDCNFFQWEDEKLSGARLAAREAHNRRCQPPLSRTQCVERYLKFIELPLTQRKFCQTCQQLLLPDDWGQHSEHQVLGNVSITQLRRPSQLLYPLENKKTNAQYLFADRSCQFLVDLLSALGFRRVLCVGTPRLHELIKLTASGDKKSNIKSLLLDIDFR”, with “not soluble”. Then “MGHHHHHHSHMEYHTMIRELILDGSLQLIQEGLKSGFLYPLFEKQDKGSKPITLPLDACSLSELCEMAKHLPSLNEMEHQTLQLVEEDTSVTEQDLFLRVVENNSSFTKVITLMGQKYLLPPKSSFLLSDISCMQPLLNYRKTFDVIVIDPPWQNKSVKRSNRYSYLSPLQIQQIPIPKLAAPNCLLVTWVTNRQKHLRFIKEELLSLLVCGGSC”, with “not soluble”.
